Broadly, the kcat is the maximal rate divided by the concentration of active sites. The term Km denotes the substrate concentration at which the rate is half of its maximum.

Data set [1] can be described thus: SAX-HPLC analysis of exhaustive heparan sulfate digests. Format: biochemical. As for the experimental part: Exhaustive digests of 3 mg/ml heparan sulfate in 50 mM sodium phosphate buffer, pH 7.6 were performed overnight at 37° C. for each of the mutants (20 μg protein). The reactions were loaded onto a Spherisorb S5 SAX column (Waters) and eluted using a linear gradient of 0.2-1.0 M NaCl, pH 3.5. The products were monitored at 232 nm and each of the major peaks was collected. To determine their composition, the collected fractions were analyzed by capillary electrophoresis and identified by comigration with known standards.
As a control, the r-heparinase III construct without its putative signal sequence was expressed. The concentration and purity of all recombinant enzyme preparations were determined using SDS-PAGE. The recombinantly expressed heparinase III was also compared to the heparinase III isolated from F. heparinum to ensure that they were the same molecular weight. Heparinase III (20 μg/mL) was incubated with a 4 mg/mL of heparan sulfate overnight at 37° C. The reaction was loaded onto a SAX column and the saccharide products were eluted using a gradient of 0.2-1.0 M NaCl, pH 3.5 over 30 min. and monitored at 232 nm. (A) Heparan sulfate digested with heparinase III from F. heparinum. (B) Heparan sulfate digested with recombinant heparinase III. (C) Heparan sulfate digested with the H295A mutant enzyme. (D) Heparan sulfate digested with the H510A mutant enzyme. (E) Heparan sulfate digested with the H105A mutant enzyme.

Data set [2] in a line: Heparinase III kinetic assay of r-heparinase III and histidine mutants. The format is biochemical. To be noted: for kcat / Km: heparan sulfate; for Km: calculated assuming a molecular weight of 15 kDa. The method, then: The activity of heparinase III was measured using a UV 232 nm assay similar to those reported for heparinase I and heparinase II (Godavarti, R., Cooney, C. L., Langer, R., and Sasisekharan, R. (1996) Biochemistry 35, 6846-52; Shriver, Z., Hu, Y., and Sasisekharan, R. (1998) J. Biol. Chem. 273, 10160-67; and Lohse, D. and Linhardt, R. J. (1992) J. Biol. Chem. 267, 781-87). Briefly, the increase in absorbance at 232 nm as a function of time was monitored under saturating substrate conditions. All assays were performed with heparan sulfate at a concentration of 2 mg/ml in 50 mM sodium phosphate, pH 7.6. The temperature for enzymatic activity measurements was kept constant at 35° C.
In parallel to the mapping studies and to confirm the results of the chemical modification experiments, each of the thirteen histidine residues present in heparinase III was mutated to alanine. The recombinant heparinase III mutant proteins were expressed, purified, and assessed for enzymatic activity towards heparan sulfate (Table 2).

For data set [3], the system named is B16BL6 melanoma. Put plainly: Primary tumor growth of B16BL6 melanoma in mice treated with heparinases. The format is in vivo. The text has this:
Heparinases I and III, which have very distinct substrate specificities for cleaving HLGAGs, were employed as tools to investigate the role of HLGAGs in tumor growth and metastasis. While heparinase I cleaves at the highly sulfated regions of HLGAGs, heparinase III only cleaves at the under-sulfated regions of the polysaccharide chain, thereby rendering these enzymes powerful tools to investigate in vivo and in vitro roles of HLGAGs, in development, morphogenesis, angiogenesis etc. To examine the roles of HLGAGs in tumor growth and metastasis, we used B16BL6 melanoma as a model system and treated tumor-bearing mice with either heparinases I or III to investigate both primary tumor growth as well as tumor metastasis. Consistent with the current paradigm, heparinase I accelerated tumor growth (FIG. 8). At a dosage of 0.5 mg/kg/day of heparinase I, tumor growth was increased by about 39%. […] Inhibition of primary tumor growth by heparinase III was first observed at 2 mg/kg per day. Tumor growth was inhibited by 73% at 12 mg/kg per day, the maximum dosage tested in the study (FIG. 8).
Mice, 15 days after tumor implantation with B16BL6 melanoma, were examined. 4×10^5 log growth phase B16BL6 melanoma cells in 0.1 ml PBS were injected to the flank of C57BL/6 mice on day 1. Daily injection of 0.1 ml of PBS, heat inactivated hep III or active heparinase III (2 mg/ml, recombinantly expressed, purified, buffer exchanged with PBS, and concentrated) started at the day 4 and continued throughout the experiment. At day 7, osmotic pumps (100 μl capacity delivering at 0.5 μl per hour) containing PBS or 3 mg/ml hep III were implanted subcutaneously at a place remote from the tumor site. Mice were sacrificed at day 15.
FIG. 8 depicts the tumor volume of the tumors isolated from the mice described above. Tumor volume was measured daily after day 7 with a caliper and calculated with the formula [volume=0.52×(width)^2×(length)].

B1: wild-type r-heparinase III: recombinantly expressed heparinase III construct without its putative signal sequence, His-tagged, from E. coli (protein, UniProt Q59289 25-659, looked up)
Heparin-sulfate lyase: QSSSITRKDFDHINLEYSGLEKVNKAVAAGNYDDAAKALLAYYREKSKAREPDFSNAEKPADIRQPIDKVTREMADKALVHQFQPHKGYGYFDYGKDINWQMWPVKDNEVRWQLHRVKWWQAMALVYHATGDEKYAREWVYQYSDWARKNPLGLSQDNDKFVWRPLEVSDRVQSLPPTFSLFVNSPAFTPAFLMEFLNSYHQQADYLSTHYAEQGNHRLFEAQRNLFAGVSFPEFKDSPRWRQTGISVLNTEIKKQVYADGMQFELSPIYHVAAIDIFLKAYGSAKRVNLEKEFPQSYVQTVENMIMALISISLPDYNTPMFGDSWITDKNFRMAQFASWARVFPANQAIKYFATDGKQGKAPNFLSKALSNAGFYTFRSGWDKNATVMVLKASPPGEFHAQPDNGTFELFIKGRNFTPDAGVFVYSGDEAIMKLRNWYRQTRIHSTLTLDNQNMVITKARQNKWETGNNLDVLTYTNPSYPNLDHQRSVLFINKKYFLVIDRAIGEATGNLGVHWQLKEDSNPVFDKTKNRVYTTYRDGNNLMIQSLNADRTSLNEEEGKVSYVYNKELKRPAFVFEKPKKNAGTQNFVSIVYPYDGQKAPEISIRENKGNDFEKGKLNLTLTINGKQQLVLVP
modifications: His tag; no signal sequence
In the case of B1, the “heparan sulfate degradation product profile compared to wild type heparinase III” value in data set [1] (SAX-HPLC and capillary electrophoresis) was “identical product profile”. In data set [2], the kcat worked out at 78 s⁻¹ and the Km is 80 µM.

B2: heat inactivated heparinase III: heat inactivated heparinase III used as control (protein, UniProt Q59289 25-659, looked up)
Heparin-sulfate lyase: QSSSITRKDFDHINLEYSGLEKVNKAVAAGNYDDAAKALLAYYREKSKAREPDFSNAEKPADIRQPIDKVTREMADKALVHQFQPHKGYGYFDYGKDINWQMWPVKDNEVRWQLHRVKWWQAMALVYHATGDEKYAREWVYQYSDWARKNPLGLSQDNDKFVWRPLEVSDRVQSLPPTFSLFVNSPAFTPAFLMEFLNSYHQQADYLSTHYAEQGNHRLFEAQRNLFAGVSFPEFKDSPRWRQTGISVLNTEIKKQVYADGMQFELSPIYHVAAIDIFLKAYGSAKRVNLEKEFPQSYVQTVENMIMALISISLPDYNTPMFGDSWITDKNFRMAQFASWARVFPANQAIKYFATDGKQGKAPNFLSKALSNAGFYTFRSGWDKNATVMVLKASPPGEFHAQPDNGTFELFIKGRNFTPDAGVFVYSGDEAIMKLRNWYRQTRIHSTLTLDNQNMVITKARQNKWETGNNLDVLTYTNPSYPNLDHQRSVLFINKKYFLVIDRAIGEATGNLGVHWQLKEDSNPVFDKTKNRVYTTYRDGNNLMIQSLNADRTSLNEEEGKVSYVYNKELKRPAFVFEKPKKNAGTQNFVSIVYPYDGQKAPEISIRENKGNDFEKGKLNLTLTINGKQQLVLVP
modifications: heat inactivated
On to B2, for which, in data set [3] (day 15), the “tumor mass upon visual inspection compared with active Hep III” value is “significantly larger tumor masses”. The “tumor growth curves compared with PBS treated mice” value in data set [3] (mouse, in vivo) is “comparable growth curves”.

B3: H105A: recombinant heparinase III with histidine 105 mutated to alanine (protein)
chain: MTTKIFKRIIVFAVIALSSGNILAQSSSITRKDFDHINLEYSGLEKVNKAVAAGNYDDAAKALLAYYREKSKAREPDFSNAEKPADIRQPIDKVTREMADKALVAQFQPHKGYGYFDYGKDINWQMWPVKDNEVRWQLHRVKWWQAMALVYHATGDEKYAREWVYQYSDWARKNPLGLSQDNDKFVWRPLEVSDRVQSLPPTFSLFVNSPAFTPAFLMEFLNSYHQQADYLSTHYAEQGNHRLFEAQRNLFAGVSFPEFKDSPRWRQTGISVLNTEIKKQVYADGMQFELSPIYHVAAIDIFLKAYGSAKRVNLEKEFPQSYVQTVENMIMALISISLPDYNTPMFGDSWITDKNFRMAQFASWARVFPANQAIKYFATDGKQGKAPNFLSKALSNAGFYTFRSGWDKNATVMVLKASPPGEFHAQPDNGTFELFIKGRNFTPDAGVFVYSGDEAIMKLRNWYRQTRIHSTLTLDNQNMVITKARQNKWETGNNLDVLTYTNPSYPNLDHQRSVLFINKKYFLVIDRAIGEATGNLGVHWQLKEDSNPVFDKTKNRVYTTYRDGNNLMIQSLNADRTSLNEEEGKVSYVYNKELKRPAFVFEKPKKNAGTQNFVSIVYPYDGQKAPEISIRENKGNDFEKGKLNLTLTINGKQQLVLVP
B3: the “catalytic activity in overnight heparan sulfate digests” value in data set [1] (SAX-HPLC, overnight 37° C.) is listed as “retain their catalytic activity”.

B4: H469A: recombinant heparinase III with histidine 469 mutated to alanine (protein)
chain: MTTKIFKRIIVFAVIALSSGNILAQSSSITRKDFDHINLEYSGLEKVNKAVAAGNYDDAAKALLAYYREKSKAREPDFSNAEKPADIRQPIDKVTREMADKALVHQFQPHKGYGYFDYGKDINWQMWPVKDNEVRWQLHRVKWWQAMALVYHATGDEKYAREWVYQYSDWARKNPLGLSQDNDKFVWRPLEVSDRVQSLPPTFSLFVNSPAFTPAFLMEFLNSYHQQADYLSTHYAEQGNHRLFEAQRNLFAGVSFPEFKDSPRWRQTGISVLNTEIKKQVYADGMQFELSPIYHVAAIDIFLKAYGSAKRVNLEKEFPQSYVQTVENMIMALISISLPDYNTPMFGDSWITDKNFRMAQFASWARVFPANQAIKYFATDGKQGKAPNFLSKALSNAGFYTFRSGWDKNATVMVLKASPPGEFHAQPDNGTFELFIKGRNFTPDAGVFVYSGDEAIMKLRNWYRQTRIASTLTLDNQNMVITKARQNKWETGNNLDVLTYTNPSYPNLDHQRSVLFINKKYFLVIDRAIGEATGNLGVHWQLKEDSNPVFDKTKNRVYTTYRDGNNLMIQSLNADRTSLNEEEGKVSYVYNKELKRPAFVFEKPKKNAGTQNFVSIVYPYDGQKAPEISIRENKGNDFEKGKLNLTLTINGKQQLVLVP
In the case of B4, in data set [2], the “changes in recombinant protein yield, enzyme activity, or kinetic parameters compared with r-heparinase III” value was “no significant changes”; the turnover number (kcat) stood at 100 s⁻¹; the Michaelis constant (Km) was 71 µM.

B5: H424A: recombinant heparinase III with histidine 424 mutated to alanine (protein)
chain: MTTKIFKRIIVFAVIALSSGNILAQSSSITRKDFDHINLEYSGLEKVNKAVAAGNYDDAAKALLAYYREKSKAREPDFSNAEKPADIRQPIDKVTREMADKALVHQFQPHKGYGYFDYGKDINWQMWPVKDNEVRWQLHRVKWWQAMALVYHATGDEKYAREWVYQYSDWARKNPLGLSQDNDKFVWRPLEVSDRVQSLPPTFSLFVNSPAFTPAFLMEFLNSYHQQADYLSTHYAEQGNHRLFEAQRNLFAGVSFPEFKDSPRWRQTGISVLNTEIKKQVYADGMQFELSPIYHVAAIDIFLKAYGSAKRVNLEKEFPQSYVQTVENMIMALISISLPDYNTPMFGDSWITDKNFRMAQFASWARVFPANQAIKYFATDGKQGKAPNFLSKALSNAGFYTFRSGWDKNATVMVLKASPPGEFAAQPDNGTFELFIKGRNFTPDAGVFVYSGDEAIMKLRNWYRQTRIHSTLTLDNQNMVITKARQNKWETGNNLDVLTYTNPSYPNLDHQRSVLFINKKYFLVIDRAIGEATGNLGVHWQLKEDSNPVFDKTKNRVYTTYRDGNNLMIQSLNADRTSLNEEEGKVSYVYNKELKRPAFVFEKPKKNAGTQNFVSIVYPYDGQKAPEISIRENKGNDFEKGKLNLTLTINGKQQLVLVP
In the case of B5, in data set [2], the “changes in recombinant protein yield, enzyme activity, or kinetic parameters compared with r-heparinase III” value is recorded as “no significant changes”; the catalytic constant (kcat) was determined as 24 s⁻¹; the Km is 59 µM.

The record behind these values is patent US7939292B2, “Modified heparinase III and methods of sequencing therewith” (Massachusetts Institute of Technology, priority 2000, dated 2011).
